Laboratory results reported in patent US20200231648A1 (LENTIGEN TECHNOLOGY, published 2020).

How the values were obtained:
CD19-Fc (R&D Biosystems) = target: T1, CD19-Fc (R&D Biosystems) (UniProt P15391 20-291); experiment: flow cytometry, CAR T cells stained with CD19-Fc and CD20-biotin
T1 construct: Bought staining reagent, 1 ug/sample; also called recombinant CD19; not shown: Fc part of the bought reagent (detected with goat anti-human Fc-gamma)
T1 sequence (looked up): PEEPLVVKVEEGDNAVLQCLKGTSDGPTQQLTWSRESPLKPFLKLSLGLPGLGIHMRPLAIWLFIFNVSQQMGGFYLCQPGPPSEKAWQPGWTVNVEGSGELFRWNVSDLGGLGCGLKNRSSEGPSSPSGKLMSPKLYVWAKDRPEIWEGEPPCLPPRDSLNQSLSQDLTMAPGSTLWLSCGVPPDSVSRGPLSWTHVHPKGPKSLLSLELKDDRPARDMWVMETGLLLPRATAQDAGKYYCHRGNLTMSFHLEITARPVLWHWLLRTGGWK
Procedure: (§1) Cells were washed twice and resuspended in 200 ul Staining Buffer before quantitative analysis by flow cytometry.

[1] = target: T2, CD20-biotin (Miltenyi Biotec) (UniProt P11836 142-188, limits assumed, biotin (site not stated)); experiment: as above
T2 construct: Bought staining reagent, 0.1 ug/sample, detected with streptavidin conjugate; also called recombinant CD20; CD20 biotin reagent
T2 chain (looked up): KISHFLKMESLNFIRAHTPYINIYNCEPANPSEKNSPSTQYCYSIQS
Procedure: as §1

B1: CAR LTG2200 (LP-2200-CD8 TM-41BB-CD3zeta) (other)
chain: QVQLQQSGPGLVKPSQTLSLTCAISGDSVSSNSAAWNWIRQSPSRGLEWLGRTYYRSKWYNDYAVSVKSRITINPDTSKNQFSLQLNSVTPEDTAVYYCAREVTGDLEDAFDIWGQGTMVTVSSGGGGSGGGGSGGGGSDIQMTQSPSSLSASVGDRVTITCRASQTIWSYLNWYQQRPGKAPNLLIYAASSLQSGVPSRFSGRGSGTDFTLTISSLQAEDFATYYCQQSYSIPQTFGQGTKLEIKAAATTTPAPRPPTPAPTIASQPLSLRPEACRPAAGGAVHTRGLDFACDIYIWAPLAGTCGVLLLSLVITLYCKRGRKKLLYIFKQPFMRPVQTTQEEDGCSCRFPEEEEGGCELRVKFSRSADAPAYQQGQNQLYNELNLGRREEYDVLDKRRGRDPEMGGKPRRKNPQEGLYNELQKDKMAEAYSEIGMKGERRRGKGHDGLYQGLSTATKDTYDALHMQALPPR
notes: Chimeric antigen receptor with the m971 anti-CD22 scFv on primary human T cells; The entry includes the leader peptide; also called 22-BBz; CAR22 LTG2200
binding result (CD19-Fc (R&D Biosystems)): no binding (tested: 1 ug/sample)
binding result [1]: no binding (tested: 0.1 ug/sample)
